Data on seven molecules can be found in PMC7780238, “Structures of ISC th4 transpososomes reveal the role of asymmetry in copy‐out/paste‐in DNA transposition”.

In data set [1] the target is ISCth4 transposase (TnpA) (Clostridium thermocellum (ATCC 27405)). The data set is described as follows: AUC; sedimentation velocity, TnpA alone at 0.5-2 uM, 20 C, 50,000 RPM, 10 mM HEPES pH 7.5, 100 mM, 0.3 mM TCEP; monomer to dimer.
Data set [2] has the same target. Briefly: AUC; sedimentation velocity, TnpA (0.5 or 5 uM) with molar excess of TIR DNA oligonucleotides (R-TIR26 at 4:1 DNA:TnpA; R35(j6)L35 or R35r41 with increasing DNA), 20 C, 10 mM HEPES pH 7.5, 100 mM, 0.3 mM TCEP.
The target in data set [3] is T1, ISCth4 transposase (TnpA) (Clostridium thermocellum ATCC 27405, UniProt A3DBR0 1-407).
T1 sequence: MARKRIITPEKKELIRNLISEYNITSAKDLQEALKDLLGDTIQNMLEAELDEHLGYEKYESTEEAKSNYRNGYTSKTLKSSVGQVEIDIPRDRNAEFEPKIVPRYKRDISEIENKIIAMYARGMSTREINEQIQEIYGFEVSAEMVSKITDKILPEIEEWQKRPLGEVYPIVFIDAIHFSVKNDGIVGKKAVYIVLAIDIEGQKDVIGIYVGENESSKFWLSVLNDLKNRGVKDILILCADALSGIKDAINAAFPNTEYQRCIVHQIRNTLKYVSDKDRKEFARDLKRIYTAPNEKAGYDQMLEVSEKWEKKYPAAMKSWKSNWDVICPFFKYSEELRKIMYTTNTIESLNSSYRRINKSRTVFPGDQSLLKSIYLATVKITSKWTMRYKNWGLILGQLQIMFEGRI
The data set is described as follows: X-ray crystallography; PRC; TnpA dimer on one DNA; 10 mM CaCl2 in precipitant; SEC: 10 mM HEPES pH 7.5, 100 mM NaCl, 0.3 mM TCEP, 4 C. Crystals: PCC 25 mM HEPES pH 7.5, 150 mM NaCl, 2 mM TCEP, 20 C; PRC/STC1 10 mM HEPES pH 7.5, 100 mM NaCl. As to conditions: protein: recombinant; tags: Trx-His-TEV fusion removed by TEV; chain copies: 2; blunt.

The target of data set [4] is T1, ISCth4 transposase (TnpA). The data set is described as follows: X-ray crystallography; PCC; TnpA dimer on one DNA, no metal in active site; 3.5 A native; SEC: 10 mM HEPES pH 7.5, 100 mM NaCl, 0.3 mM TCEP, 4 C. Crystals: PCC 25 mM HEPES pH 7.5, 150 mM NaCl, 2 mM TCEP, 20 C; PRC/STC1 10 mM HEPES pH 7.5, 100 mM NaCl. As to conditions: protein: recombinant; tags: Trx-His-TEV fusion removed by TEV; chain copies: 2; blunt.

Data set [5] addresses T1, ISCth4 transposase (TnpA). Briefly: X-ray crystallography; STC1; TnpA dimer on one DNA; ZnCl2 in drop; SEC: 10 mM HEPES pH 7.5, 100 mM NaCl, 0.3 mM TCEP, 4 C. Crystals: PCC 25 mM HEPES pH 7.5, 150 mM NaCl, 2 mM TCEP, 20 C; PRC/STC1 10 mM HEPES pH 7.5, 100 mM NaCl. As to conditions: protein: recombinant; tags: Trx-His-TEV fusion removed by TEV; chain copies: 2; 3 strands; blunt outer ends; 1-nt gap between S68 and S66.

For data set [6], the target named is T1, ISCth4 transposase (TnpA). Briefly: SV AUC; 5 uM TnpA; 7.9 S, 138 kDa dimer:1 DNA, plus ~12 S at DNA:TnpA 0.25:1; SEC: 10 mM HEPES pH 7.5, 100 mM NaCl, 0.3 mM TCEP, 4 C. Crystals: PCC 25 mM HEPES pH 7.5, 150 mM NaCl, 2 mM TCEP, 20 C; PRC/STC1 10 mM HEPES pH 7.5, 100 mM NaCl. As to conditions: protein: recombinant; tags: Trx-His-TEV fusion removed by TEV; chain copies: 2; label: 5'FAM on strand 1 in the labeled version; blunt.

Data set [7] addresses T1, ISCth4 transposase (TnpA). Briefly: SV AUC; 5 uM TnpA; ~7.9 S, plus ~12 S at DNA:TnpA 0.25:1; SEC: 10 mM HEPES pH 7.5, 100 mM NaCl, 0.3 mM TCEP, 4 C. Crystals: PCC 25 mM HEPES pH 7.5, 150 mM NaCl, 2 mM TCEP, 20 C; PRC/STC1 10 mM HEPES pH 7.5, 100 mM NaCl. Conditions: protein: recombinant; tags: Trx-His-TEV fusion removed by TEV; chain copies: 2; blunt.
Data set [8] has as its target T1, ISCth4 transposase (TnpA). Briefly: SEC; 40 uM TnpA; ~450 kDa, octamer with 4 TIRs; behaves like R-TIR; SEC: 10 mM HEPES pH 7.5, 100 mM NaCl, 0.3 mM TCEP, 4 C. Crystals: PCC 25 mM HEPES pH 7.5, 150 mM NaCl, 2 mM TCEP, 20 C; PRC/STC1 10 mM HEPES pH 7.5, 100 mM NaCl. As to conditions: protein: recombinant; tags: Trx-His-TEV fusion removed by TEV; chain copies: 2; blunt. Background: Size exclusion chromatography separates by hydrodynamic size, large species first.

As a reminder, the stoichiometry N is a count of units in the complex or per binding partner. Regarding ISCth4 transposase (TnpA) (enzyme), the stoichiometry N in data set [1] and in data set [2] was 2 in each case.

B1: fR-TIR26 (dsDNA)
DNA 1: TTTTTGGGCAGTGTAAATATTTTTGTGTAAAC
DNA 2: GTTTACACAAAAATATTTACACTGCCCAAAAA
As to B1, the binding result in data set [3] was “binds”.

B2: R-TIR26 (dsDNA)
DNA 1: GGCAGTGTAAATATTTTTGTGTAAAC
DNA 2: GTTTACACAAAAATATTTACACTGCC
On to B2, for which, in data set [4], the binding result is listed as “binds”.

B3: R26(j6)L15-5'rec (dsDNA)
DNA 1: GTTTACACAAAAATATTTACACTGCCGTTTTGGAGATTGTAAAATAT
DNA 2: ATATTTTACAATCTCCAAAAC
DNA 3: GCAGTGTAAATATTTTTGTGTAAAC
Turning to B3, the binding result in data set [5] was “binds”.

B4: R35(j6)L35 (dsDNA)
DNA 1: GCACTGGATGTTTACACAAAAATATTTACACTGCCTTTTTTGAGATTGTAAAATATTTTATGTAAACAGTGCACTG
DNA 2: CAGTGCACTGTTTACATAAAATATTTTACAATCTCAAAAAAGGCAGTGTAAATATTTTTGTGTAAACATCCAGTGC
B4: in data set [6], the binding result was “binds”.

B5: R35r41 (dsDNA)
DNA 1: GCACTGGATGTTTACACAAAAATATTTACACTGCCTTTTTTTACCTAGTCATCAATGCCTACGTACGTAACGTTAC
DNA 2: GTAACGTTACGTACGTAGGCATTGATGACTAGGTAAAAAAAGGCAGTGTAAATATTTTTGTGTAAACATCCAGTGC
In the case of B5, in data set [7], the binding result is given as “binds”.

B6: L-TIR26 (dsDNA)
DNA 1: GAGATTGTAAAATATTTTATGTAAAC
DNA 2: GTTTACATAAAATATTTTACAATCTC
Turning to B6, the binding result in data set [8] is “binds”.
